Assay results from IntAct's records for PubMed 22801494.

B1: Interferon-induced, double-stranded RNA-activated protein kinase (Homo sapiens), P19525 (parent)
chain: MAGDLSAGFFMEELNTYRQKQGVVLKYQELPNSGPPHDRRFTFQVIIDGREFPEGEGRSKKEAKNAAAKLAVEILNKEKKAVSPLLLTTTNSSEGLSMGNYIGLINRIAQKKRLTVNYEQCASGVHGPEGFHYKCKMGQKEYSIGTGSTKQEAKQLAAKLAYLQILSEETSVKSDYLSSGSFATTCESQSNSLVTSTLASESSSEGDFSADTSEINSNSDSLNSSSLLMNGLRNNQRKAKRSLAPRFDLPDMKETKYTVDKRFGMDFKEIELIGSGGFGQVFKAKHRIDGKTYVIKRVKYNNEKAEREVKALAKLDHVNIVHYNGCWDGFDYDPETSDDSLESSDYDPENSKNSSRSKTKCLFIQMEFCDKGTLEQWIEKRRGEKLDKVLALELFEQITKGVDYIHSKKLIHRDLKPSNIFLVDTKQVKIGDFGLVTSLKNDGKRTRSKGTLRYMSPEQISSQDYGKEVDLYALGLILAELLHVCDTAFETSKFFTDLRDGIISDIFDKKEKTLLQKLLSKKPEDRPNTSEILRTLTVWKKSPEKNERHTC

Variants of: B1
Details: with nlrp3_human NLRP3, Q96P20
nlrp3_human NLRP3, Q96P20, sequence (Q96P20 whole entry): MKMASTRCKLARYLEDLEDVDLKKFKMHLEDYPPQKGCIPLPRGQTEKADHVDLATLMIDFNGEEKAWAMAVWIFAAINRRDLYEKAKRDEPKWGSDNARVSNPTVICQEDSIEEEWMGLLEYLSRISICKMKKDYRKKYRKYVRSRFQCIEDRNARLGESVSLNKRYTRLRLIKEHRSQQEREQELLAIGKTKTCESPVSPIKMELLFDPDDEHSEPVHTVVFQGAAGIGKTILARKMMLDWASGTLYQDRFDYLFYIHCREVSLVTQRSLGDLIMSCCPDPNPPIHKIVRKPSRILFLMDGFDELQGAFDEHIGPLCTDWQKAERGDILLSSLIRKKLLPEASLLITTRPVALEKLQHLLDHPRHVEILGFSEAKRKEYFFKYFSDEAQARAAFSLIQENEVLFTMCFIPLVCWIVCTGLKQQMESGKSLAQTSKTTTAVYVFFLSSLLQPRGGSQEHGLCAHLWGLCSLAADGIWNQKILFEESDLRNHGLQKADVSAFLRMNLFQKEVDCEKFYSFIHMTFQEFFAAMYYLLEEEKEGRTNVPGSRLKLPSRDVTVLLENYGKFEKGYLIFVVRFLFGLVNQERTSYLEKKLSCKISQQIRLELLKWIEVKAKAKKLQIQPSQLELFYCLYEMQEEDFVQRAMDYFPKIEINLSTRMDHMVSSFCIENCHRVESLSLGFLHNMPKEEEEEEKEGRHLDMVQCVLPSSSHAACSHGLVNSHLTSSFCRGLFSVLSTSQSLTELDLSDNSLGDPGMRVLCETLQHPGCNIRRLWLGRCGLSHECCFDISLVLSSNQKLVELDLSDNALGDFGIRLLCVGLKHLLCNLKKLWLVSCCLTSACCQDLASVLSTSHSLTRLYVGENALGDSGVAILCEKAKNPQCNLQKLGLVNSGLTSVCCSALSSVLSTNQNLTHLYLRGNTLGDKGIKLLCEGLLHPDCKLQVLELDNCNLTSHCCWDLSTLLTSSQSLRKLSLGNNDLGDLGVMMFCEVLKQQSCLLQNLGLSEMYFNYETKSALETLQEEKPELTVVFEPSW

Variant	effect of a mutation on the interaction
MAGDLSAGFFMEELNTYRQKQGVVLKYQELPNSGPPHDRRFTFQVIIDGREFPEGEGRSKKEAKNAAAKLAVEILNKEKKAVSPLLLTTTNSSEGLSMGNYIGLINRIAQKKRLTVNYEQCASGVHGPEGFHYKCKMGQKEYSIGTGSTKQEAKQLAAKLAYLQILSEETSVKSDYLSSGSFATTCESQSNSLVTSTLASESSSEGDFSADTSEINSNSDSLNSSSLLMNGLRNNQRKAKRSLAPRFDLPDMKETKYTVDKRFGMDFKEIELIGSGGFGQVFKAKHRIDGKTYVIRRVKYNNEKAEREVKALAKLDHVNIVHYNGCWDGFDYDPETSDDSLESSDYDPENSKNSSRSKTKCLFIQMEFCDKGTLEQWIEKRRGEKLDKVLALELFEQITKGVDYIHSKKLIHRDLKPSNIFLVDTKQVKIGDFGLVTSLKNDGKRTRSKGTLRYMSPEQISSQDYGKEVDLYALGLILAELLHVCDTAFETSKFFTDLRDGIISDIFDKKEKTLLQKLLSKKPEDRPNTSEILRTLTVWKKSPEKNERHTC [K296R]	disrupting interaction strength
